Measured values as given in US20120107297A1 (KOREA RESEARCH INSTITUTE OF BIOSCIENCE AND BIOTECHNOLOGY, published 2012).

B1: Elongin B (endogenous) (other, human, UniProt Q15370 1-118, looked up)
chain: MDVFLMIRRHKTTIFTDAKESSTVFELKRIVEGILKRPPDEQRLYKDDQLLDDGKTLGECGFTSQTARPQAPATVGLAFRADDTFEALCIEPFSSPPELPDVMKPQDSGSSANEQAVQ
B2: UCP (endogenous E2EPF ubiquitin carrier protein) (enzyme, human, UniProt Q16763 1-222, looked up)
chain: MNSNVENLPPHIIRLVYKEVTTLTADPPDGIKVFPNEEDLTDLQVTIEGPEGTPYAGGLFRMKLLLGKDFPASPPKGYFLTKIFHPNVGANGEICVNVLKRDWTAELGIRHVLLTIKCLLIHPNPESALNEEAGRLLLENYEEYAARARLLTEIHGGAGGPSGRAEAGRALASGTEASSTDPGAPGGPGGAEGPMAKKHAGERDKKLAAKKKTDKKRALRRL
notes: Endogenous protein in cell lysates; also called E2EPF-UCP; endogenous UCP

Assays:
[1] = target: B2; assay: summary sentence citing FIG. 7 and FIG. 8b
Method: (§1) CAKI (kidney cancer cell line) or HepG2 (liver cancer cell line) cells were collected from 10 100 mm culture dishes and frozen at −70° C. The frozen cells were lysed in 0.5 ml of a cell lysis buffer (50 mM Tris, 0.5 mM EDTA, 50 mM KCl, 10% glycerol, 1 mM DTT, 0.5% NP-40, 0.5 mM PMSF). The cell lysate was loaded in 10 ml of 5%-20% sucrose density gradient solution, followed by ultra-centrifugation at 35,000 rpm for 16 hours.

[2] = target: T1, VHL E3 ligase complex (comprising VHL, Elongin B, Elongin C and Rbx1) (human, UniProt P40337 1-213; Q15370 1-118; Q15369 1-112; P62877 1-108); assay: sucrose density gradient centrifugation of cell lysate, Western blot of fractions
T1 construct: also called VHL E3 ubiquitin ligase complex
T1 sequence (P40337 whole entry, chain 1 of 3): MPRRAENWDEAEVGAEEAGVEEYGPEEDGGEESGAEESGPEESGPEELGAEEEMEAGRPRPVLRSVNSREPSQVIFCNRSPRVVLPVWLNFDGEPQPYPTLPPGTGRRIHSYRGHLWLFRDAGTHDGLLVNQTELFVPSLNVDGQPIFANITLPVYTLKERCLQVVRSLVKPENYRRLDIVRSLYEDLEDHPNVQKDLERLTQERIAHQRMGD
T1 sequence (Q15369 whole entry, chain 3 of 3): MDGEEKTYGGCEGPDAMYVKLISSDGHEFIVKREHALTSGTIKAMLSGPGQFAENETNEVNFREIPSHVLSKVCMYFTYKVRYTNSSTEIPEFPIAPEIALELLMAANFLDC
T1 sequence (P62877 whole entry, chain 4 of 3): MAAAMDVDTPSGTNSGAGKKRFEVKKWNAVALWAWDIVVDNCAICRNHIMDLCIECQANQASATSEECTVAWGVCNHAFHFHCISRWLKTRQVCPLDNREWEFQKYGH
Method: as §1

[3] = target: Elongin C (endogenous) (human, UniProt Q15369 1-112); assay: summary sentence citing FIG. 7 and FIG. 8b
Elongin C (endogenous), sequence (Q15369 whole entry): as the sequence (Q15369 whole entry, chain 3 of 3) above
Method: as §1

[4] = target: Rbx1 (endogenous) (human, UniProt P62877 1-108); assay: summary sentence citing FIG. 7 and FIG. 8b
Rbx1 (endogenous), sequence (P62877 whole entry): as the sequence (P62877 whole entry, chain 4 of 3) above
Method: as §1

binding result [1]	binding result [2]	binding result [3]	binding result [4]	Binder
no binding				B1
	no binding	no binding	no binding	B2
